{"source": "patent US20210107988A1", "about": "(Genmab, published 2021)", "binders": {"B1": {"name": "IgG1-11B8-E430G-S440K with introduced mutation G237A (antibody, name in EU numbering)", "heavy": "EVQLVQSGGGLVHPGGSLRLSCTGSGFTFSYHAMHWVRQAPGKGLEWVSIIGTGGVTYYADSVKGRFTISRDNVKNSLYLQMNSLRAEDMAVYYCARDYYGAGSFYDGLYGMDVWGQGTTVTVSSASTKGPSVFPLAPSSKSTSGGTAALGCLVKDYFPEPVTVSWNSGALTSGVHTFPAVLQSSGLYSLSSVVTVPSSSLGTQTYICNVNHKPSNTKVDKRVEPKSCDKTHTCPPCPAPELLGAPSVFLFPPKPKDTLMISRTPEVTCVVVDVSHEDPEVKFNWYVDGVEVHNAKTKPREEQYNSTYRVVSVLTVLHQDWLNGKEYKCKVSNKALPAPIEKTISKAKGQPREPQVYTLPPSREEMTKNQVSLTCLVKGFYPSDIAVEWESNGQPENNYKTTPPVLDSDGSFFLYSKLTVDKSRWQQGNVFSCSVMHGALHNHYTQKKLSLSPGK", "light": "not shown", "notes": "also called IgG1-11B8-E430G-S440K-G237A"}, "B2": {"name": "IgG1-CAMPATH-1H-E430G-K439E with introduced mutation G237A (antibody, name in EU numbering)", "heavy": "QVQLQESGPGLVRPSQTLSLTCTVSGFTFTDFYMNWVRQPPGRGLEWIGFIRDKAKGYTTEYNPSVKGRVTMLVDTSKNQFSLRLSSVTAADTAVYYCAREGHTAAPFDYWGQGSLVTVSSASTKGPSVFPLAPSSKSTSGGTAALGCLVKDYFPEPVTVSWNSGALTSGVHTFPAVLQSSGLYSLSSVVTVPSSSLGTQTYICNVNHKPSNTKVDKRVEPKSCDKTHTCPPCPAPELLGAPSVFLFPPKPKDTLMISRTPEVTCVVVDVSHEDPEVKFNWYVDGVEVHNAKTKPREEQYNSTYRVVSVLTVLHQDWLNGKEYKCKVSNKALPAPIEKTISKAKGQPREPQVYTLPPSREEMTKNQVSLTCLVKGFYPSDIAVEWESNGQPENNYKTTPPVLDSDGSFFLYSKLTVDKSRWQQGNVFSCSVMHGALHNHYTQESLSLSPGK", "light": "not shown", "notes": "also called IgG1-CAMPATH-1H-E430G-K439E-G237A"}, "B3": {"name": "IgG1-CAMPATH-1H-E430G-S440K-Y436N (antibody)", "heavy": "B2 heavy with A241G, Y440N, E443K, S444K", "light": "not shown"}, "B4": {"name": "IgG1-CAMPATH-1H-E430G-S440K-Q438N (antibody)", "heavy": "B2 heavy with A241G, Q442N, E443K, S444K", "light": "not shown"}, "B5": {"name": "IgG1-CAMPATH-1H-E430G-S440K-Q438R (antibody)", "heavy": "B2 heavy with A241G, Q442R, E443K, S444K", "light": "not shown", "notes": "also called IgG1-Campath-E430G Q438R/S440K"}, "B6": {"name": "IgG1-CAMPATH-1H-E430G-K439E-Q438N (antibody)", "heavy": "B2 heavy with A241G, Q442N", "light": "not shown", "notes": "also called IgG1-Campath-E430G Q438N/K439E"}, "B7": {"name": "IgG1-CAMPATH-1H-E430G-K439E-Q438R (antibody)", "heavy": "B2 heavy with A241G, Q442R", "light": "not shown"}, "B8": {"name": "IgG1-CAMPATH-1H-E430G-K439E-Y436K (antibody)", "heavy": "B2 heavy with A241G, Y440K", "light": "not shown"}, "B9": {"name": "IgG1-CAMPATH-1H-E430G-S440K-Y436K (antibody)", "heavy": "B2 heavy with A241G, Y440K, E443K, S444K", "light": "not shown", "notes": "also called IgG1-Campath-E430G Y436K/S440K"}, "B10": {"name": "IgG1-CAMPATH-1H-E430G-K439E-Y436N (antibody)", "heavy": "B2 heavy with A241G, Y440N", "light": "not shown", "notes": "also called IgG1-Campath-E430G Y436N/K439E"}, "B11": {"name": "IgG1-Campath-E430G H310R/S440K (antibody)", "heavy": "B2 heavy with A241G, H314R, E443K, S444K", "light": "not shown", "notes": "also called IgG1-CAMPATH-1H-E430G-S440K with H310R; constant region IgG1m(f)-H310R-E430G-S440K"}, "B12": {"name": "IgG1-Campath-E430G I253R/S440K (antibody)", "heavy": "B2 heavy with A241G, I257R, E443K, S444K", "light": "not shown", "notes": "also called IgG1-CAMPATH-1H-E430G-S440K with I253R; constant region IgG1m(f)-I253R-E430G-S440K"}, "B13": {"name": "IgG1-Campath-E430G I253K/S440K (antibody)", "heavy": "B2 heavy with A241G, I257K, E443K, S444K", "light": "not shown", "notes": "also called IgG1-CAMPATH-1H-E430G-S440K with I253K; constant region IgG1m(f)-I253K-E430G-S440K"}, "B14": {"name": "IgG1-Campath-E430G I253G/K439E (antibody)", "heavy": "B2 heavy with A241G, I257G", "light": "not shown", "notes": "also called IgG1-CAMPATH-1H-E430G-K439E with I253G; constant region IgG1m(f)-I253G-E430G-K439E"}, "B15": {"name": "IgG1-Campath-E430G H310D/K439E (antibody)", "heavy": "B2 heavy with A241G, H314D", "light": "not shown", "notes": "also called IgG1-CAMPATH-1H-E430G-K439E with H310D; constant region IgG1m(f)-H310D-E430G-K439E"}, "B16": {"name": "IgG1-b12 (human IgG1 antibody b12, HIV gp120-specific) (antibody)", "heavy": "not shown", "light": "EIVLTQSPGTLSLSPGERATFSCRSSHSIRSRRVAWYQHKPGQAPRLVIHGVSNRASGISDRFSGSGSGTDFTLTITRVEPEDFALYYCQVYGASSYTFGQGTKLERKRTVAAPSVFIFPPSDEQLKSGTASVVCLLNNFYPREAKVQWKVDNALQSGNSQESVTEQDSKDSTYSLSSTLTLSKADYEKHKVYACEVTHQGLSSPVTKSFNRGEC", "notes": "also called IgG-b12"}}, "note": "Changes are numbered by the printed parent chain. Names may count otherwise."}
{"target": "T1, dimeric, His-tagged, C-terminally biotinylated ECD of FcγRIIA allotype 131H (Homo sapiens (Human), UniProt P12318 34-215, C-terminally biotinylated)", "T1 sequence": "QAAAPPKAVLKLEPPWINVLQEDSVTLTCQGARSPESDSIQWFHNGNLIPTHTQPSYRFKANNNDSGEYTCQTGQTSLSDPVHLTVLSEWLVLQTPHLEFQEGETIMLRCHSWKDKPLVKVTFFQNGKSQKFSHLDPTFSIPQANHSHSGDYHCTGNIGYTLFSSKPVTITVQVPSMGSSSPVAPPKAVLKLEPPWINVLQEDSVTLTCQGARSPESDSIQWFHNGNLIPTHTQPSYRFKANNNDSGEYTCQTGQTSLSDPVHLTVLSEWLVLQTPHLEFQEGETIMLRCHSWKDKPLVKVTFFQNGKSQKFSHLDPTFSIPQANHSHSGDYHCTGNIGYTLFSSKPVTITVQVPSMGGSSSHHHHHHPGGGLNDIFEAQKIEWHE", "assay": "FcγR ELISA"}
{"binder": "B1", "binding result": "no binding (tested: 20 µg/mL)"}
{"binder": "B2", "binding result": "no binding (tested: 20 µg/mL)"}
{"target": "dimeric, His-tagged, C-terminally biotinylated ECD of FcγRIIIA allotype 158F (C-terminally biotinylated)", "assay": "FcγR ELISA"}
{"binder": "B1", "binding result": "no binding (tested: 20 µg/mL)"}
{"target": "T2, dimeric, His-tagged, C-terminally biotinylated ECD of FcγRIIIA allotype 158V (C-terminally biotinylated)", "T2 construct": "also called diFCGR3A-158V-HisBAP; IIIA-158V", "assay": "FcγR ELISA"}
{"binder": "B1", "binding result": "no binding (tested: 20 µg/mL)"}
{"binder": "B2", "binding result": "no binding (tested: 20 µg/mL)"}
{"target": "T3, dimeric, His-tagged, C-terminally biotinylated ECD of FcγRIIA allotype 131R (Homo sapiens (Human), UniProt P12318 36-215, C-terminally biotinylated)", "T3 chain": "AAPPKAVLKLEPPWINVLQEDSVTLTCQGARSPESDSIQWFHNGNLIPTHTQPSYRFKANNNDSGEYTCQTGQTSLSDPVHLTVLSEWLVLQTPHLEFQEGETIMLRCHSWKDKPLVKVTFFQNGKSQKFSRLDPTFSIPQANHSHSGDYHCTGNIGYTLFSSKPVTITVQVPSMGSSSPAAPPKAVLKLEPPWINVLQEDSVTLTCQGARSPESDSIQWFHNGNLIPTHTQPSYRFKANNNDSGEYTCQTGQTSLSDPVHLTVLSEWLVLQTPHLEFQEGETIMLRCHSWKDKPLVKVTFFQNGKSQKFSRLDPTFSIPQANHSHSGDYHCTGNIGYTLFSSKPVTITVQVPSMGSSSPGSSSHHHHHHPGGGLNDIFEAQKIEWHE", "assay": "FcγR ELISA, 20 µg/mL antibody"}
{"binder": "B3", "binding result": "binds"}
{"binder": "B4", "binding result": "binds"}
{"binder": "B5", "binding result": "binds"}
{"binder": "B6", "binding result": "binds"}
{"binder": "B7", "binding result": "binds"}
{"binder": "B8", "binding result": "binds"}
{"binder": "B9", "binding result": "binds"}
{"binder": "B10", "binding result": "binds"}
{"target": "T1, dimeric, His-tagged, C-terminally …", "assay": "FcγR ELISA, 20 µg/mL antibody"}
{"binder": "B3", "binding result": "binds"}
{"binder": "B4", "binding result": "binds"}
{"binder": "B5", "binding result": "binds"}
{"binder": "B6", "binding result": "binds"}
{"binder": "B7", "binding result": "binds"}
{"binder": "B8", "binding result": "binds"}
{"binder": "B9", "binding result": "binds"}
{"binder": "B10", "binding result": "binds"}
{"target": "T4, dimeric, His-tagged, C-terminally biotinylated ECD of FcγRIIB (Homo sapiens (Human), UniProt P31994 44-223, C-terminally biotinylated)", "T4 construct": "also called diFCGR2B-HisBAP", "T4 sequence": "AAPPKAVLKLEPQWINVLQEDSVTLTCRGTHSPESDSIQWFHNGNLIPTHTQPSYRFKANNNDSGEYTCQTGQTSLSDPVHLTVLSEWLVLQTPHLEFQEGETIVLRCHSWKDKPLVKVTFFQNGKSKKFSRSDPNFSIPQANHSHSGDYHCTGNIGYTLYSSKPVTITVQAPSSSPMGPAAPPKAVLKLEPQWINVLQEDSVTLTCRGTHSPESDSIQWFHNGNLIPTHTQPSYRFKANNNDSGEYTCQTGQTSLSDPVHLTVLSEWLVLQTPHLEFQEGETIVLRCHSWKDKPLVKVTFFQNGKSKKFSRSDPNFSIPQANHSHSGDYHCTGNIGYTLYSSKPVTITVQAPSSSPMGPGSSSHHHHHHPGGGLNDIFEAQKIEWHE", "assay": "FcγR ELISA, 20 µg/mL antibody"}
{"binder": "B3", "binding result": "binds"}
{"binder": "B4", "binding result": "binds"}
{"binder": "B5", "binding result": "binds"}
{"binder": "B6", "binding result": "binds"}
{"binder": "B7", "binding result": "binds"}
{"binder": "B8", "binding result": "binds"}
{"binder": "B9", "binding result": "binds"}
{"binder": "B10", "binding result": "binds"}
{"target": "T5, FcRnECDHis-B2M-BIO (biotinylated extracellular domain of human FcRn with a C-terminal His tag as dimer with … (human, UniProt P55899 24-297)); P61769 21-119, biotinylated (site not stated))", "T5 construct": "Coated on Streptawell plates at 5 µg/mL; also called FcRnhsECDHis", "T5 sequence (P55899 other isoform, or with tags, fused parts or gaps limits assumed, chain 1 of 2)": "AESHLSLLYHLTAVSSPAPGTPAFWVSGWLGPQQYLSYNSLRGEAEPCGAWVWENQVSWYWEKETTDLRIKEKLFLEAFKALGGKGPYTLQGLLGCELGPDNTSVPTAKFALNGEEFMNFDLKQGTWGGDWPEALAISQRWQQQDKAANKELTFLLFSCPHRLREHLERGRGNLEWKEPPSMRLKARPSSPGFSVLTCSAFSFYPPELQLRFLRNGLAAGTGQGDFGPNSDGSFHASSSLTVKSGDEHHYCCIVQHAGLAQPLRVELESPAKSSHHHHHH", "T5 sequence (P61769 21-119 limits assumed, chain 2 of 2)": "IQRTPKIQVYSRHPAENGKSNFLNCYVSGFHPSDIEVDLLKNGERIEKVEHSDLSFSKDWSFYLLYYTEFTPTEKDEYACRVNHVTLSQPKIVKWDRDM", "assay": "FcRn ELISA, pH 7.4"}
{"binder": "B11", "binding result": "no binding (tested: 40 µg/mL)"}
{"binder": "B12", "binding result": "no binding (tested: 40 µg/mL)"}
{"binder": "B13", "binding result": "no binding (tested: 40 µg/mL)"}
{"binder": "B14", "binding result": "no binding (tested: 40 µg/mL)"}
{"binder": "B15", "binding result": "no binding (tested: 40 µg/mL)"}
{"target": "T5, FcRnECDHis-B2M-BIO (biotinylated …)", "assay": "FcRn ELISA, pH 6.0"}
{"binder": "B16", "binding result": "binds"}
